Measured values published in IntAct's records for PubMed 28869608.

B1: Protein canopy homolog 2 (Mus musculus), Q9QXT0 (parent)
chain: MKGWGWLALLLGVLLGTAWARRSQDLHCGACRALVDELEWEIARVDPKKTIQMGSFRINPDGSQSVVEVPYARSEAHLTELLEEVCDRMKEYGEQIDPSTHRKNYVRVVSRNGESSELDLQGIRIDSDISGTLKFACESIVEEYEDELIEFFSREADNVKDKLCSKRTDLCDHALHRSHDEL
partner: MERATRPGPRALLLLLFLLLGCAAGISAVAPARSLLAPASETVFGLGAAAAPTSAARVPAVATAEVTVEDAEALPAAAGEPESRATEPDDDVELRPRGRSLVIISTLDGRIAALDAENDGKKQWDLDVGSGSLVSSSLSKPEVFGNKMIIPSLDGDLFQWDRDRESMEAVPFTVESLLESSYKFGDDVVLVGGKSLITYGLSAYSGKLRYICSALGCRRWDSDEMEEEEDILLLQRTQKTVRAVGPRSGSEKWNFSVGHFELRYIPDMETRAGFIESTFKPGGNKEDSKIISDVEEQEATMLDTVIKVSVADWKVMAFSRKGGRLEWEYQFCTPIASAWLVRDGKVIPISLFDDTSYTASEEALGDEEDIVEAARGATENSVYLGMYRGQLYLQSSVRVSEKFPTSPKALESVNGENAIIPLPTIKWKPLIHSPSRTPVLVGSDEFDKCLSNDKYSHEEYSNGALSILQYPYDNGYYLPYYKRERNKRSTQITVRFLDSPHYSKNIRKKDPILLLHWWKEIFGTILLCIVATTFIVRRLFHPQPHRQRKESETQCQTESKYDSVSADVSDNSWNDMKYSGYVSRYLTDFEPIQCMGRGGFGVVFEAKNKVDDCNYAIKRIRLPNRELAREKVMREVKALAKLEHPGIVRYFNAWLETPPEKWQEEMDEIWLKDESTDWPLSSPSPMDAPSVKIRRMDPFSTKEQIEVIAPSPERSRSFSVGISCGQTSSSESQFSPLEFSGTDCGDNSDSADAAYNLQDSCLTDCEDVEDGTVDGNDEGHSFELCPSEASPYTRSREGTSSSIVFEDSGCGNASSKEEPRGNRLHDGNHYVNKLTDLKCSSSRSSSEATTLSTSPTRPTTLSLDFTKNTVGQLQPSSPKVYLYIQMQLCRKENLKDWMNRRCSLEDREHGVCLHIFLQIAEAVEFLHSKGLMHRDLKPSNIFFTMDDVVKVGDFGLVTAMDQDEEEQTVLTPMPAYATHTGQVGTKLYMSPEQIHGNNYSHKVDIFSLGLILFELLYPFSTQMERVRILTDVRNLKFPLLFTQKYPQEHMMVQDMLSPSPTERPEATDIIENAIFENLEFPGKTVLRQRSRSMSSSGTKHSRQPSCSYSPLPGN

Variants of: B1
Conditions: with Eif2ak3, Q9Z2B5

effect of a mutation on the interaction | Variant
disrupting interaction | MKGWGWLALLLGVLLGTAWARRSQDLHAGAARALVDELEWEIARVDPKKTIQMGSFRINPDGSQSVVEVPYARSEAHLTELLEEVADRMKEYGEQIDPSTHRKNYVRVVSRNGESSELDLQGIRIDSDISGTLKFAAESIVEEYEDELIEFFSREADNVKDKLASKRTDLADHALHRSHDEL [C28A;C31A;C86A;C137A;C164A;C171A]

Variants of: B1
Conditions: with Eif2ak3, Q9Z2B5
Remark: another data set of the same source

effect of a mutation on the interaction | Variant
increasing interaction | MKGWGWLALLLGVLLGTAWARRSQDLHAGAARALVDELEWEIARVDPKKTIQMGSFRINPDGSQSVVEVPYARSEAHLTELLEEVADRMKEYGEQIDPSTHRKNYVRVVSRNGESSELDLQGIRIDSDISGTLKFACESIVEEYEDELIEFFSREADNVKDKLCSKRTDLCDHALHRSHDEL [C28A;C31A;C86A]
